Measured values reported in publication PMC6555819, “Comprehensive study of nuclear receptor DNA binding provides a revised framework for understanding receptor specificity”.

Legend:
[1] = target: RARa:RXRa (Homo sapiens, UniProt P10276;P19793 full;full); test: no ligand; PBM; 270 nM : 90 nM RXRa; PBS pH 7.4, 2% milk, 0.02% Triton X-100, 1 mM DTT, BSA, 0.4 mg/ml salmon testes DNA; settings: tags: His kept;His cleaved; copies: 1;1; label: surface-attached array probe
How it was run: (§1)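 On custom Agilent 4×180K arrays, double-stranded probes with 34-nt variable regions carried direct-repeat seeds, single-nucleotide variants, half-site ablations or random human genomic background. Ligand-free nuclear receptor dimers were applied for 1 h, and binding was read with antibodies against each partner (one per run). Binding z-scores come from regression-normalized fluorescence, with the random background probes as reference.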

[2] = target: PXR:RXRa (Homo sapiens, UniProt O75469;P19793 full;full); test: as above; settings: tags: His kept;His cleaved; copies: 1;1; label: surface-attached array probe
How it was run: as §1

[3] = target: PPARg:RXRa (Homo sapiens, UniProt P37231;P19793 full;full); test: no ligand; PBM; 180 nM : 90 nM RXRa; PBS pH 7.4, 2% milk, 0.02% Triton X-100, 1 mM DTT, BSA, 0.4 mg/ml salmon testes DNA; settings: tags: His kept;His cleaved; copies: 1;1; label: surface-attached array probe
[4] = target: VDR:RXRa (Homo sapiens, UniProt P11473;P19793 full;full); test: no ligand; PBM; 270 nM : 90 nM RXRa; PBS pH 7.4, 2% milk, 0.02% Triton X-100, 1 mM DTT, BSA, 0.4 mg/ml salmon testes DNA; settings: tags: His kept;His cleaved; copies: 1;1; label: surface-attached array probe
How it was run: as §1

[5] = target: RARg:RXRa (Homo sapiens, UniProt P13631;P19793 full;full); test: as above; settings: tags: His kept;His cleaved; copies: 1;1; label: surface-attached array probe
How it was run: as §1

[6] = target: LXRa:RXRa (Homo sapiens, UniProt Q13133;P19793 full;full); test: as above; settings: tags: His kept;His cleaved; copies: 1;1; label: surface-attached array probe
How it was run: as §1

[7] = target: PPARa:RXRa (Homo sapiens, UniProt Q07869;P19793 full;full); test: as above; settings: tags: GST kept;His cleaved; copies: 1;1; label: surface-attached array probe
How it was run: as §1

Chain of RARa:RXRa (P10276 whole entry, chain 1 of 2): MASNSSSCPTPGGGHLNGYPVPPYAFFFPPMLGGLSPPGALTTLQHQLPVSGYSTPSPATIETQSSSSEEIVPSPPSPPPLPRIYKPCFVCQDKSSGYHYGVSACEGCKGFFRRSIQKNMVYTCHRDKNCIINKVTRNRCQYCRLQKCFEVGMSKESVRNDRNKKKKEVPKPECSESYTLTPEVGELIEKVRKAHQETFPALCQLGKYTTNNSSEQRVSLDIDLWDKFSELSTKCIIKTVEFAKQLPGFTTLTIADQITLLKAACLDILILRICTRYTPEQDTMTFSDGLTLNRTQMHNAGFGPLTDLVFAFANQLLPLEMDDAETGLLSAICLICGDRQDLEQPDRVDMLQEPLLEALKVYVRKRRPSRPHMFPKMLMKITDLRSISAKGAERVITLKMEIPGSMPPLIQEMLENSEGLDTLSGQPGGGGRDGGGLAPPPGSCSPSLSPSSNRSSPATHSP
Chain of RARa:RXRa (P19793 whole entry, chain 2 of 2): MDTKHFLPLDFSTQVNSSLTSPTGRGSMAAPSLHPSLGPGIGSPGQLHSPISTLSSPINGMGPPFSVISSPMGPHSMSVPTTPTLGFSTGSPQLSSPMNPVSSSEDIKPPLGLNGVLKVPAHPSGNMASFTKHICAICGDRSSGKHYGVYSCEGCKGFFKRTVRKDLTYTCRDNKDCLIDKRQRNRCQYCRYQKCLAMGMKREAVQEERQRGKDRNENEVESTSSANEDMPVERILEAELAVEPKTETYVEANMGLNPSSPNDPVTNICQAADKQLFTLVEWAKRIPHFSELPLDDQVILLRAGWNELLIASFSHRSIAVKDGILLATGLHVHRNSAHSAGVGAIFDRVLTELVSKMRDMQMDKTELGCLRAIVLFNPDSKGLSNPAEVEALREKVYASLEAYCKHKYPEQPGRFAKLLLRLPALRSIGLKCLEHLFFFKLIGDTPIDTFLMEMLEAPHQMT
Chain of PPARg:RXRa (P37231 29-505, chain 1 of 2): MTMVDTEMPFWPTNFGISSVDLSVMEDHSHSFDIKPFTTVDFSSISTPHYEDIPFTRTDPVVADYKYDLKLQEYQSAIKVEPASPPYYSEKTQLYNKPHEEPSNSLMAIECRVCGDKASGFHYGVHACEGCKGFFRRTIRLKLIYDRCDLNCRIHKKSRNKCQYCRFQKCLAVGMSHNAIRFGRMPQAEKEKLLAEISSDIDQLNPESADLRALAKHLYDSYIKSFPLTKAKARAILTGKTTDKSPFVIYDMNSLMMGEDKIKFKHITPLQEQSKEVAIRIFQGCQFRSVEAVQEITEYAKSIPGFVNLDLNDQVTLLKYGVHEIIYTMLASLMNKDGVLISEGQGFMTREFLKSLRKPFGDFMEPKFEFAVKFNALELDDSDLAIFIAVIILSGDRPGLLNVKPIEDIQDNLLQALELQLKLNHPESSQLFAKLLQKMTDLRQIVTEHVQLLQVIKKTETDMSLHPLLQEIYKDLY
Chain of PPARg:RXRa (P19793 whole entry, chain 2 of 2): as the sequence (P19793 whole entry, chain 2 of 2) above
Chain of PXR:RXRa (O75469 whole entry, chain 1 of 2): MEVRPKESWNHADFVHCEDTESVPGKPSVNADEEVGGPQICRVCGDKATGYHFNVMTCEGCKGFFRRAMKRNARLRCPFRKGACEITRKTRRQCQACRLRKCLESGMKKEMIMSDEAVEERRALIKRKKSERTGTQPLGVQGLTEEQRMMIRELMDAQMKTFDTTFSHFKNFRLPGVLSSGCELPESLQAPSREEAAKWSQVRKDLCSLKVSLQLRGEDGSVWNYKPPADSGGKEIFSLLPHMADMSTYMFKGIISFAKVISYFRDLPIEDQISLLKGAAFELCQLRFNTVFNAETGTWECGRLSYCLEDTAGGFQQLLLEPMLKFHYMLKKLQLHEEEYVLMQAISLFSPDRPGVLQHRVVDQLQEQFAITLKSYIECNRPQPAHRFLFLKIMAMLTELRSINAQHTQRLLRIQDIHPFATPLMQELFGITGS
Chain of PXR:RXRa (P19793 whole entry, chain 2 of 2): as the sequence (P19793 whole entry, chain 2 of 2) above
Chain of RARg:RXRa (P13631 whole entry, chain 1 of 2): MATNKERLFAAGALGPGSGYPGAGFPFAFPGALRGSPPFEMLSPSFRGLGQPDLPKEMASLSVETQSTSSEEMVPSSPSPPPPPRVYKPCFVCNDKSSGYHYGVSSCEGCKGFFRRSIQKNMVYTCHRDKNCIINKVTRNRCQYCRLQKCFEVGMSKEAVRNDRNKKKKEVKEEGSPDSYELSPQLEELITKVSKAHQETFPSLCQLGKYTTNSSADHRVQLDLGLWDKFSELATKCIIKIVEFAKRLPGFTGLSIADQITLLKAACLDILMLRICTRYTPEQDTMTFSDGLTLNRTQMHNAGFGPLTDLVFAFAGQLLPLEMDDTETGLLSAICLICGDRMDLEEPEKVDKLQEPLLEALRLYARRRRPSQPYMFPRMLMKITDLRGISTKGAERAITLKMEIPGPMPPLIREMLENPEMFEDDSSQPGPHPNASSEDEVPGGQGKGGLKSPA
Chain of RARg:RXRa (P19793 whole entry, chain 2 of 2): as the sequence (P19793 whole entry, chain 2 of 2) above
Chain of LXRa:RXRa (Q13133 whole entry, chain 1 of 2): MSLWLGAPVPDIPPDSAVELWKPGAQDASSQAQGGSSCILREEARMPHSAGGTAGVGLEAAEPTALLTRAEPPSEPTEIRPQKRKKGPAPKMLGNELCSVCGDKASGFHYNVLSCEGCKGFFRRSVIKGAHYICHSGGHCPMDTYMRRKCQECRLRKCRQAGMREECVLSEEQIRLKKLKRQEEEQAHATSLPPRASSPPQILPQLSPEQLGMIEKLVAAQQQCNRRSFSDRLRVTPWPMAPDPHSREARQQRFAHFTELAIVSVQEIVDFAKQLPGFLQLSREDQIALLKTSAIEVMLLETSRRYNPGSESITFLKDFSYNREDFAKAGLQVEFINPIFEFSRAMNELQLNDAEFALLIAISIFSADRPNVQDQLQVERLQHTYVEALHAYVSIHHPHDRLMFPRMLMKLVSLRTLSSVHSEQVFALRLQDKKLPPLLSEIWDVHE
Chain of LXRa:RXRa (P19793 whole entry, chain 2 of 2): as the sequence (P19793 whole entry, chain 2 of 2) above
Chain of PPARa:RXRa (Q07869 whole entry, chain 1 of 2): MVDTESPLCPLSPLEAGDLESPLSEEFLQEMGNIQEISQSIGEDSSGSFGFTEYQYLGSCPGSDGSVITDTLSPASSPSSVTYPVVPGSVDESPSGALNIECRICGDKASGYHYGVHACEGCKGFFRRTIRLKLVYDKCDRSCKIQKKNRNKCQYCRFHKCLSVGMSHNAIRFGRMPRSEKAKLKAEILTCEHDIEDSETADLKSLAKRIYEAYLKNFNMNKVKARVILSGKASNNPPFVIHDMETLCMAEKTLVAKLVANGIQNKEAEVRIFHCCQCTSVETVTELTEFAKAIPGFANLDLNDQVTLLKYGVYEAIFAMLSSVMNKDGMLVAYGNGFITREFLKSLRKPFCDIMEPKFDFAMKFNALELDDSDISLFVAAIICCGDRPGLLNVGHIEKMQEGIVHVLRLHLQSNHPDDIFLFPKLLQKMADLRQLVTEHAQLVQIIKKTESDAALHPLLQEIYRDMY
Chain of PPARa:RXRa (P19793 whole entry, chain 2 of 2): as the sequence (P19793 whole entry, chain 2 of 2) above
Chain of VDR:RXRa (P11473 whole entry, chain 1 of 2): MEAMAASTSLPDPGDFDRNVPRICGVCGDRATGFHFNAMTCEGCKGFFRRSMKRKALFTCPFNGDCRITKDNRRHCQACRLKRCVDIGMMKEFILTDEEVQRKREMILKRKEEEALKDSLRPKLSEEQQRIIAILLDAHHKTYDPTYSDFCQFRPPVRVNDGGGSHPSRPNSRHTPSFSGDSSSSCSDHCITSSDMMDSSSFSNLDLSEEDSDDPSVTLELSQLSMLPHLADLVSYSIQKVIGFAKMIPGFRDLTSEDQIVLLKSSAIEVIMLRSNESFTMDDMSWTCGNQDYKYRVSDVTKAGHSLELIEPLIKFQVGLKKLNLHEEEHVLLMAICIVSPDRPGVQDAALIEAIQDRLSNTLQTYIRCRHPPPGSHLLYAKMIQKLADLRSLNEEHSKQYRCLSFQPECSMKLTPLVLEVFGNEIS
Chain of VDR:RXRa (P19793 whole entry, chain 2 of 2): as the sequence (P19793 whole entry, chain 2 of 2) above

Binder | binding signal [1] | binding signal [2] | binding signal [3] | further results
NRC3_wobSeed25_DR1_C26T_o1 (dsDNA) DNA 1: GCCAAACTAGGTCAAAGGTCAAAGTTGAGCCAACCAGCGATTGACAGCGTAGAATGAAGG DNA 2: CCTTCATTCTACGCTGTCAATCGCTGGTTGGCTCAACTTTGACCTTTGACCTAGTTTGGC | 9.38 PBM z-score against 500 random probes | – | – | –
NRC3_wobSeed37_DR1_G24A_o1 (dsDNA) DNA 1: GCCGTCCAAGGTCAAAGGTCAGTAAAGAGATGACGGGCGATTGACAGCGTAGAATGAAGG DNA 2: CCTTCATTCTACGCTGTCAATCGCCCGTCATCTCTTTACTGACCTTTGACCTTGGACGGC | 9.33 PBM z-score against 500 random probes | – | – | –
NRC3_wobSeed25_DR1_A5G_o1 (dsDNA) DNA 1: GCCAGACTAGGTCAAAGGTCAAAGTCGAGCCAACCAGCGATTGACAGCGTAGAATGAAGG DNA 2: CCTTCATTCTACGCTGTCAATCGCTGGTTGGCTCGACTTTGACCTTTGACCTAGTCTGGC | 9.27 PBM z-score against 500 random probes | – | – | –
NRC3_wobSeed29_DR1_C25T_o1 (dsDNA) DNA 1: GCGCTTACGGGTCAAAGGTTATAGTATGAATAGAATGCGATTGACAGCGTAGAATGAAGG DNA 2: CCTTCATTCTACGCTGTCAATCGCATTCTATTCATACTATAACCTTTGACCCGTAAGCGC | 8.73 PBM z-score against 500 random probes | – | – | –
NRC3_wobSeed49_DR2_A5C_o1 (dsDNA) DNA 1: GCCACACTAGGTCAAGAGGTCAAAGTCCGCTTCCCGGCGATTGACAGCGTAGAATGAAGG DNA 2: CCTTCATTCTACGCTGTCAATCGCCGGGAAGCGGACTTTGACCTCTTGACCTAGTGTGGC | 8.44 PBM z-score against 500 random probes | – | – | –
NRC3_wobSeed97_DR4_A6T_o1 (dsDNA) DNA 1: GCCAATCTAGGTCACGAAAGGTCAAAGTCGAATGACGCGATTGACAGCGTAGAATGAAGG DNA 2: CCTTCATTCTACGCTGTCAATCGCGTCATTCGACTTTGACCTTTCGTGACCTAGATTGGC | 8.17 PBM z-score against 500 random probes | – | – | –
NRC3_wobSeed109_DR4_G25C_o1 (dsDNA) DNA 1: GCCGTCCAAGGTCATAGGAGGTCACTGAAGACAGATGCGATTGACAGCGTAGAATGAAGG DNA 2: CCTTCATTCTACGCTGTCAATCGCATCTGTCTTCAGTGACCTCCTATGACCTTGGACGGC | 7.71 PBM z-score against 500 random probes | – | – | –
NRC3_wobSeed46_DR1_C7A_o1 (dsDNA) DNA 1: GCTTACAAAGGTGAAAGGTCGTTGATGCACGCCTTGGCGATTGACAGCGTAGAATGAAGG DNA 2: CCTTCATTCTACGCTGTCAATCGCCAAGGCGTGCATCAACGACCTTTCACCTTTGTAAGC | 7.64 PBM z-score against 500 random probes | – | – | –
NRC3_wobSeed41_DR1_T8G_o1 (dsDNA) DNA 1: GCATATGGAGGTTAAGGGTCATTCAGGTTGGTTCGCGCGATTGACAGCGTAGAATGAAGG DNA 2: CCTTCATTCTACGCTGTCAATCGCGCGAACCAACCTGAATGACCCTTAACCTCCATATGC | 7.62 PBM z-score against 500 random probes | – | – | –
NRC3_wobSeed28_DR1_T8A_o1 (dsDNA) DNA 1: GCCCTACAGGGCCAAAGGTCATTGATTCCAATGCTCGCGATTGACAGCGTAGAATGAAGG DNA 2: CCTTCATTCTACGCTGTCAATCGCGAGCATTGGAATCAATGACCTTTGGCCCTGTAGGGC | 7.45 PBM z-score against 500 random probes | – | – | –
NRC3_wobSeed109_DR4_G17A_o1 (dsDNA) DNA 1: GCCGTCCAAGGTCATAAGAGGTCAGTGAAGACAGATGCGATTGACAGCGTAGAATGAAGG DNA 2: CCTTCATTCTACGCTGTCAATCGCATCTGTCTTCACTGACCTCTTATGACCTTGGACGGC | 7.18 PBM z-score against 500 random probes | – | – | –
NRC3_wobSeed98_DR4_G11T_o1 (dsDNA) DNA 1: GCACTAGTTGTTCAGCTGAGGTCACACACAATTCGGGCGATTGACAGCGTAGAATGAAGG DNA 2: CCTTCATTCTACGCTGTCAATCGCCCGAATTGTGTGTGACCTCAGCTGAACAACTAGTGC | 4.63 PBM z-score against 500 random probes | – | – | –
NRC3_wobSeed13_DR0_G17C_o1 (dsDNA) DNA 1: GCCGTCCAAGGTCAAGCTCAGTGAAAGAGACTCGAAGCGATTGACAGCGTAGAATGAAGG DNA 2: CCTTCATTCTACGCTGTCAATCGCTTCGAGTCTCTTTCACTGAGCTTGACCTTGGACGGC | 4.6 PBM z-score against 500 random probes | – | – | –
NRC3_wobSeed29_DR1_A7C_o1 (dsDNA) DNA 1: GCGCTTCCGGGTCAAAGGTTATAGCATGAATAGAATGCGATTGACAGCGTAGAATGAAGG DNA 2: CCTTCATTCTACGCTGTCAATCGCATTCTATTCATGCTATAACCTTTGACCCGGAAGCGC | – | 6.49 PBM z-score against 500 random probes | 12.4 PBM z-score against 500 random probes | –
NRC3_wobSeed76_DR3_T21C_o1 (dsDNA) DNA 1: GCCCTACTGGGCCAAAAAGGCCATTGATGCCGATAAGCGATTGACAGCGTAGAATGAAGG DNA 2: CCTTCATTCTACGCTGTCAATCGCTTATCGGCATCAATGGCCTTTTTGGCCCAGTAGGGC | – | -0.08 PBM z-score against 500 random probes | 0.38 PBM z-score against 500 random probes | –
NRC3_wobSeed37_DR1_G22C_o1 (dsDNA) DNA 1: GCCGTCCAAGGTCAAAGGTCACTGAAGAGATGACGGGCGATTGACAGCGTAGAATGAAGG DNA 2: CCTTCATTCTACGCTGTCAATCGCCCGTCATCTCTTCAGTGACCTTTGACCTTGGACGGC | – | 7.38 PBM z-score against 500 random probes | 11.9 PBM z-score against 500 random probes | binding signal [4]: 7.17 PBM z-score against 500 random probes; binding signal [5]: 9.31 PBM z-score against 500 random probes
NRC3_wobSeed73_DR3_A6T_o1 (dsDNA) DNA 1: GCCAATCTAGGTCACAGAGGTCAAAGTCCGTGCGTAGCGATTGACAGCGTAGAATGAAGG DNA 2: CCTTCATTCTACGCTGTCAATCGCTACGCACGGACTTTGACCTCTGTGACCTAGATTGGC | – | 7.27 PBM z-score against 500 random probes | 10.7 PBM z-score against 500 random probes | –
NRC3_wobSeed33_DR1_A13T_o1 (dsDNA) DNA 1: GCATCTCTAGGTTAAAGTTCAGTGAATCCCGAGGATGCGATTGACAGCGTAGAATGAAGG DNA 2: CCTTCATTCTACGCTGTCAATCGCATCCTCGGGATTCACTGAACTTTAACCTAGAGATGC | – | 3.64 PBM z-score against 500 random probes | 10 PBM z-score against 500 random probes | –
NRC3_random_hg19_385_o1 (dsDNA) DNA 1: GCTCTATGGTCACTAGACCTTGGGATGCACCAAGGCGCGATTGACAGCGTAGAATGAAGG DNA 2: CCTTCATTCTACGCTGTCAATCGCGCCTTGGTGCATCCCAAGGTCTAGTGACCATAGAGC | – | 0.11 PBM z-score against 500 random probes | 0.45 PBM z-score against 500 random probes | binding signal [6]: 0.2 PBM z-score against 500 random probes
NRC3_random_hg19_290_o1 (dsDNA) DNA 1: GCGCCTCCATCTCAGGACTTGATTCTATTGAGTTAAGCGATTGACAGCGTAGAATGAAGG DNA 2: CCTTCATTCTACGCTGTCAATCGCTTAACTCAATAGAATCAAGTCCTGAGATGGAGGCGC | – | -0.26 PBM z-score against 500 random probes | -0.43 PBM z-score against 500 random probes | binding signal [7]: -0.45 PBM z-score against 500 random probes; binding signal [5]: -0.59 PBM z-score against 500 random probes
NRC3_random_hg19_455_o1 (dsDNA) DNA 1: GCCTGCAGTTTCTGTTTCCGTGGTCCAGGTTGAGCCGCGATTGACAGCGTAGAATGAAGG DNA 2: CCTTCATTCTACGCTGTCAATCGCGGCTCAACCTGGACCACGGAAACAGAAACTGCAGGC | – | -0.33 PBM z-score against 500 random probes | -2.08 PBM z-score against 500 random probes | –
NRC3_random_hg19_319_o1 (dsDNA) DNA 1: GCTCCCTGCCAGCCCTGGTCTGAAGCAAGCCTAGAGGCGATTGACAGCGTAGAATGAAGG DNA 2: CCTTCATTCTACGCTGTCAATCGCCTCTAGGCTTGCTTCAGACCAGGGCTGGCAGGGAGC | – | -0.63 PBM z-score against 500 random probes | -1.25 PBM z-score against 500 random probes | –
NRC3_random_hg19_195_o1 (dsDNA) DNA 1: GCGGACTGTCTGCAAAGAGTCCTGTGATATGATCTGGCGATTGACAGCGTAGAATGAAGG DNA 2: CCTTCATTCTACGCTGTCAATCGCCAGATCATATCACAGGACTCTTTGCAGACAGTCCGC | – | -0.96 PBM z-score against 500 random probes | 0.1 PBM z-score against 500 random probes | binding signal [6]: -1.32 PBM z-score against 500 random probes
